One molecule from doi:10.1101/2020.04.30.070086 (bioRxiv, 2020) can be followed below.

The experiment addresses T1, keratin 1 (K1) (UniProt P04104 1-637).
T1 sequence (looked up): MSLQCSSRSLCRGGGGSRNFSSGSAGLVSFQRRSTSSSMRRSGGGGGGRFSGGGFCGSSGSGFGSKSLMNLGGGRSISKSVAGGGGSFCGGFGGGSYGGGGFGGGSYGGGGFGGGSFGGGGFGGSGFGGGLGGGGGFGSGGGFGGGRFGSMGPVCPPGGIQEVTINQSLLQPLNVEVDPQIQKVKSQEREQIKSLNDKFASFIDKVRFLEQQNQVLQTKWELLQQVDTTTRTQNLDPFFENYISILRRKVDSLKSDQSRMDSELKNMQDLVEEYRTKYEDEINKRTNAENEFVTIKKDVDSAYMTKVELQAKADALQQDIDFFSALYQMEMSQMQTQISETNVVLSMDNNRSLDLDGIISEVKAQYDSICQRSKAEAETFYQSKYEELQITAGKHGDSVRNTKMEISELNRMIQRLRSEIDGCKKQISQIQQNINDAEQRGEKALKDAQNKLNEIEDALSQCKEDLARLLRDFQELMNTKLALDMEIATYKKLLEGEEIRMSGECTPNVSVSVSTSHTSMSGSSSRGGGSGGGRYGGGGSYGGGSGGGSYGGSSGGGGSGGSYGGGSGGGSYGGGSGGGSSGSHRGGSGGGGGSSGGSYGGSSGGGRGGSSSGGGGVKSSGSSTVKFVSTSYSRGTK
Nature of the experiment: co-sedimentation.

B1: keratin 10 (K10), full length (natural protein, UniProt P02535-2 1-561, looked up)
chain: MSVLYSSSSKQFSSSRSGGGGGGGSVRVSSTRGSLGGGYSSGGFSGGSFSRGSSGGGCFGGSSGGYGGFGGGGSFGGGYGGSSFGGGYGGSSFGGGSFGGGGSFGGGSFGGGSYGGGFGGGGFGGDGGSLLSGNEKVTMQNLNDRLASYMDKVRALEESNYELEGKIKEWYEKHGNSSQREPRDYSKYYKTIEDLKGQILTLTTDNANVLLQIDNARLAADDFRLKYENEVTLRQSVEADINGLRRVLDELTLSKSDLEMQIESLNEELAYLKKNHEEEMRDLQNVSTGDVNVEMNAAPGVDLTQLLNNMRNQYEQLAEKNRKDAEEWFNQKSKELTTEIDSNIEQMSSHKSEITELRRTVQGLEIELQSQLALKQSLEASLAETEGRYCVQLSQIQSQISALEEQLQQIRAETECQNAEYQQLLDIKTRLENEIQTYRSLLEGEGSSSGGGGGRRGGSGGGSYGGSSGGGSYGGSSGGGGSYGGSSGGGGSYGGGSSGGGSHGGSSGGGYGGGSSSGGAGGHGGSSGGGYGGGSSSGGQGGSGGFKSSGGGDQSSKGPRY
B1: the binding result is listed as “binds”.
